In a protein production outcome set (Wang et al. 2014):

test: label from the status in PepcDB records
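Also: failed if final PepcDB status was selected cloned or expressed and not failed if soluble or beyond.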

| Sequence | protein production |
| --- | --- |
| MTVSHHNASTARFYALRLLPGQEVFSQLHAFVQQNQLHAAWIAGCTGSLTDVALRYAGQEATTSLTGTFEVISLNGTLELTGEHLHLAVSDPYGAMLGGHMMPGCTVRTTLELVIGELPALTFSRQPCAISGYDELHISSRLEHHHHHH | not failed |
| MTVVTFLAFLIPILVLAAIGGVVWWFWMKLRYKTARSNEALIIAGPKLGDPKKETNIFTDNEGRSIKIIRGGGHLLKMHQTATPVDLTSFQLKLTTPRVFTNGGVPIIADAVAMVTVSDTLKGIAIYAEQFLGKEQKEIESEISEVLNANLRAILSKMTVEQINEDREGFNLQVTEVAQKQLDSMGFKITSLGLQDLRDADKENGYLENLGRPRIAEVRKRAEIAESNSDKETRIHKANNDKEAKEQEFQRKIEIAAALKEKDLKDAAIKEETERARAKAEQSYLLEKAKLDKEVQEEELQLLARKKEEELRIKHLERERAVKLEEEEAKVRRAKADADFYETTRKAEADAEKARIEGETKARIKREEGLAEAEVIRKRGEAEAEAKRLLAEAIAKHGEVIIIEKLIEMLPQFAESISKPLSNIESVKIIDTGNGNGVSSYSKSITNTMAQIQEPLKELTGLDVSKLLTDLVNRGNTHTVVRTEAVPTDHHGSPVAASTESEEPVEDQPLENSDSEEKLEHHHHHH | not failed |
| MTWLIISGLVVGALLGFVMQRTRFCLAGGFRDMYIQKSNKMFYALLIAISVQSIGLLLLTSTRLVEIPESTYPIIGTVIGSFIFGLGIIMAGGCATGTWYRAGEGLIGSWMALIAYAFTSAATKFGLLLPLMNGLNKPTNVNTSMSQTTGIPTWVFVIVLIVITLFFVVKTLRKPKFAVPKLKQKFTGIRHYLFEKKYHPFVAAIAVGLIALLAWPVSESTGRMYGLGITTPSANLVQFFVTGDLKLLDWGVFLVLGIFFGSYIAAKGAKEFKWRLPDKKTIRNSIIGGVLMGFGASVAGGCSIGNGLVETATMSWKGWIALASMILGAWTMSYFVFIRPMKKAQSQTSNTKVSSQTQTS | failed |
| MTYCLGIVTQAGLIMAADSRTNAGIDYISTYQKLFDFSLPGDRTIVICCSGNLSITQAVLSQLRRDLAGHFDINLHSLPTMYDLARYLGQKVRQLQESDRDWLKQDGIDFYCNFLLGGQIRGGPIELYLVYGQGNCIHATPETPYLQIGETKYGKPILDRTISFDTSLDMAAKCALMSLDSTMRSNLSVGPPLNLARYERDSLVAPMLVQFPAGHEYLVEMRRRWEISLKDAFMRLPDIDWSRQLMRSLSPVSESVPLEHHHHHH | failed |
| MTYCLGVKLKDGLVAIADTRITSGTDTTTAKKLFVHESAHGSLFLMTSGLRSVRDKAITYFKEVLKDEHVVYNQLYEAVNAFGNQLRRVAEEDRKALYAAGFAFNLHTIVGGQLKNDEEPKMFLLYPEGNWIELTQTSPFMIIGNSGYGKPILNRTVKYESTLEEVLKAGFLSFDSTRVSANDVDFPLDVVVYYNNSFKMIEHRFEKKDMEIISTTWDNQLKQALDSVPEEWMNVVFDRKNVLLEHHHHHH | failed |
| MTYKELATFLKVLSDSSRLEILDLLSCGELCACDLLAHFQFSQPTLSYHMKALVKTNLVTTRKIGNKHLYQLNHNIFESVINNLSKVHTSNQRCICHNLKTGEC | failed |
| MTYKVLHVGAGGFGERWCDTFLPSNNSDGTIEVVGLVDIDARALEIGRKHLGLKAKQCFTSAAQAFKAVDADFCTIVIPPALHEGIVDLALERGMHILSEKPIAATMEASVRIADKVRVAGRKMAVTMSHRFDQDKSTLRALVSDEALGRVNTVSCRFAGDYRAYDSWGRFRHEMIHPMLIEGAVHHLDIMADLAGAPCTSIYARSWKPEWAEYKGETDVMVLMDFANGAHGVYEGSSAQATGLNDWTFEYVRVEAASGTAILDHREVEVFHRDPKRIYQKNRHGKGQQVSLLGGKKWKNSLLIEQFCHWLDGGPPMATNVEDNLQSVALIFSAIESARLGQPVKVQEFLQSFRKSASIETQ | failed |
| MTYMYDHDHIPKHITATIWEHLQRENPNFFKEYNKRCELVRQIVTLNDLLAQQIDLMQRLSQLDVGTTAPVTKLQEPNDHHHDEVQTLEQWLETNGFANIEDTFLCLSDLVDAPVTEVQKPKDKDQSCDQWINGSNDLASIEETVSSLINPSPFAETPQSEPPGLRYDTDCACITATSNLVTWVYDPSGDNKSGVEISSERRFGANISLERRRPREAGFTEQRPPSVLDGGRITGPLSSEPTMTH | failed |
| MTYQQAGRIAVIKRILGWVIFIPSVLSTLISVLKFMYEHSEKKPGIDAVMMDFAHVMIEMMRFNTPFLNFFWYNSPLPDFHHSLNIGFWIIFILVFVGMALQASGARMARQAKFLREGIEDQLILEQAKGADGLTREQLAERIVVPRHTILVQYFPLYVLPVIVIVIGYFFFSLLGFL | failed |
| MVAACKTMLTQIYEVATPAEAEAISVIGVDHVGVLVGDGAFPRELPVQKALAVMKMVRAPSVVSALFLSADVALIERMARELDPPIVHLGASSELLTPDLVVALRKSLPKTKFMRSVPVTGPEAVGVAQAYDGVVDWILLDSHRTGDVQIGAQGVTHDWSISRTIVESVRTPVILAGGLGPDNVKEAIRSVRPAGVDSKTRTDREGTHSKDLRKVEAFYRAATSG | failed |
| MVACRVRLGRHQGARAGRTVCPKHRLRARDAGSRECAALSAGCGRMGRMSEQSLPDGVRPQNADALPEYAERVLDMTELIPPGRVMTYGDVAEYLEEGGPRQVGRVMSLYGGGVPWWRVVRADGVLLAGHELEALDRYREEGTPLKEASRAAEGHLPRLDLKRARWDGEGRPQGHGGRAQGHT | failed |
| MVAGRRKVVPGLVLLCLGALLARSLSVLIGINELLLAIALGAVLVNTVGIPERFRHGTATYNIWLAAGIVLLGSSLTVGMIIEVGATVLLLLVAAVTLTLVTVEVLARNVAGVTDRFGSLLAAGAGICGVSAVAAVGGAVRAKEMHIAYAAGVVLLVDAVTIVVYPIVGAVLDLPDVVFGVWAGVSMLSTGPVVAVGFAHSEVAGQWATITKLARNALIGVVALGYASYYARRGAGGSTSVRMLWENFPKFVLGFLVLVGLASLGAFSPAQQDMISTVVDWLFLLAFVGLGTQIRTAELRATGITPALIVFAAVLLVSVLSLAAALVVL | failed |
| MVAIAQGLPHDLLAPAWQILILGDGSPTRHLQLLTGETTEVDVIDMSAIGHAGDRAPAQLQLIPGPRLRRQVWLRTASGQRLAYATSWWEAAHVDEYLQNRAMPIWTNLAQRKLELYRDIQAVYLGHSETLAAAFGEAGPFWGRHYLFWHDRRPITLIYEVFSPYLCRYLGPMGSTAYWANSALPFALEHHHHHH | failed |
| MVAIDYVVIGAGYAGLMCAEALMDKGFKTLVFDMRESGGEIVVFSKLEEFRSKYEKYIEKIEEIRKDIPVDIGTVIKSKPVIINSGNGLKRYEARRVILATGATDTAPVKLNVLSKKIEGIYTLENALREISENNKIGEKVLIAAKDDVIVKLAESQLSDLGYDVEISELTNDIQVIGKERVEGVEISGVRYSCDTLVVYGGRNPFNPLKLRGTPVGNVVTCTYDYSKVEENVKNFLAKILEHHHHHH | failed |
| MVAKDYPFYLTVKRANCSLEAPLGSGVAKDEEPSNKRVKPLSRVTSLANLIPPVKTTPLKRFSQTLQRSISFRSESRPDILAPRAWSRNATSSSTKRRDSKLWSETFDVCVNQVLTAKEIKRQEAIFELSQGEEDLIEDLKLAKKAYHDPMLKLSIMTEQELNQIFGTLDSLIPLHEELLSQLRDVRKPDGSTEHVGPILVGWLPCLSSYDSYCSNQVAAKALLDHKKQDHRVQDFLQRCLESPFSRKLDLWNFLDIPRSRLVKYPLLLREILRHTPNDNPDQQHLEEAINIIQGIVAEINTKTGESECRYYKERLLYLEEGQKDSLIDSSRVLCCHGELKNNRGVKLHVFLFQEVLVITRAVTHNEQLCYQLYRQPIPVKDLTLEDLQDGEVRLGGSLRGAFSNNERVKNFFRVSFKNGSQSQTHSLQANDTFNKQQWLNCIRQAKETVLSAAGQAGLLDSEGLVQGPGTENREPQGETKLEQMDQSDSESDCSMDTSEVSLECERMEQTDASCANSRPEESV | not failed |
| MVAPLEIKNSNAFCFFPVSFASSRFPWLLKTLVMILGLATVVFMFRSLALTAEFGTFKPAFPKPGPVDPVLKLLSEEHLRTLFTYSDIWLFPKNQCDCESGKQQMKYKYQNAYNQKDLPAVNARRQAEFEHFQRREGLPRPPPLLASPNLPFGYPVHGVEVMPLHTILIPGLQYEGPDAPVYEVTLKASLGTLNTLADVSDNEVQGRGQRQLSISTRHRKVLNFILQHVTYTSTVYHLHKVDIVSMESKSSVAKFPVTIKHQTVPKLYDPGPERKLRNLVTIATKTFLRPHKFKILLQSIRKYYPDLTVIVTDDSKEPLEIKDDYVEYYPMPFGKGWFAGRNLAISQVTTKYVLWVDDDFLFSNKTKIEVLVDVLEKTELDVVGGSVQGNTFQFRLLLERSENGDCLHQRWGSFQALDGFPGCTLASGVTNFFLAHTEQLRRVGFDPALQRVAHREFFIDGLGSLLVGSCPGVTVDHQTRTPSKDPKLAALEMSYAKYRTNTNSQVQFKLALHYFKNHLYCAT | failed |
| MVDAASTGLFLDAAGMKALGAAIAIAVTGLASAIAEKDIGTAAIGAMAENEGLFGKGLILTVIPETIVIFGLVVALLINQ | failed |
| MVDIHSHIIPGIDDGSNSLETTLKMMEIANEAGLTKMVATSHYFRGRFENSISAITSEAEKLNSIFKKKAVDIEVIPGQEVFIDNHTLEAHKNGIIGCIRDTNYMLVEFDMMSLLENAADILYEIQIRGIKPIIAHPERYTYIQRDLYKINDLIDENIYFQVNAGSIEGLFGKTVQKTAIKLIEEGLVSFIASDAHSAGKRCPGYEGALKLVAKIDSVLPGKFVKNADLLIENQEIKARSQKLKRKKGFFTFFK | failed |
| MVDLVAKLKRGAPMLALLIVSTVLAGCSSSTAIKGSKDEGLRLARLLRDQGRVEAATEVYARLDSRDALKGAEMLEYASVAALARSPQQTLELYGRARQALGGDTNKMTPGEALAVCLGMGRTQLALGRNAMAQTDFACALKAQPNDAGALNGMGVVMDASGKHAEARQLFEKALQVNPADVAALNNLALSWLASGNTDKAISLLRSVDESNATSRLNLALAYLSGGRDDEARSALATIAQPQRIDGLMDELNQRLQQMQKDKSRGEALLLSSRQRLQLSAPE | failed |
| MVDYHYFKSKLNHFYGRYVGYNQRPVFFDIDQTFPELNHITRHFPDIKREFENVQANVKEFPRYHDIDPGESAISNTTEKNWNVFMLYLLGYQLKEARLLCPELCNLLEGIPHLIQAFFSILEPGKSIPLHEGPYIGYLRYHLGIHVPQNNPPQILVNNQTYTWKEGEAVLFDDSWPHEVRNTSDDYRAVLIIDVLRPMPFLPQLVNQFVTHVIARYFYGRKVMKRAMQYGGEVKPLALLEHHHHHH | failed |
| MVETGHHHQHPPAPAAAGHPPVPSMAMARNMGTTWPPAEQLHHLQYCIHSNPSWHETVVLAFQHYIVMLGTTVLIANTLVSPMGGDPGDKARVIQTILFMSGINTLLQTLIGTRLPTVMGVSFAYVLPVLSIIRDYNNGQFDSEKQRFRHTMRTVQGSLIISSFVNIIIGYGQAWGNLIRIFSPIIVVPVVSVVSLGLFLRGFPLLANCVEIGLPMLILLIITQQYLKHAFSRISMILERYALLVCLAIIWAFAAILTVSGAYNNVSTATKQSCRTDRAFLMSSAPWIRIPYPFQWGTPIFKASHVFGMFGAAIVASAESTGVFFAASRLAGATAPPAHVVSRSIGLQGIGVLLEGIFGSITGNTASVENVGLLGLTRIGSRRVVQVSTFFMIFFSIFGKFGAFFASIPLPIFAGVYCILLGIVVAVGISFIQFTDTNSMRNMYVIGVSLFLSLSIAQYFLANTSRAGYGPVRTAGGWFNDILNTIFASAPLVATILATILDNTLEARHASDDARGIPWWKPFQHRNGDGRNDEFYSMPLRINELMPTRFL | failed |
